# ± gives the standard deviation of the averaged measurements.
# Test system: Saccharomyces cerevisiae
# Experiment: protein stability index of tFT-peptide fusion (C-terminal peptide) (PSI (0-1 scale)); higher = more stable (slower turnover)
# Conditions: genetic background: wild type; temperature: 30 C
# Protocol: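 Multiplexed protein stability (MPS) profiling in S. cerevisiae. Random 12-aa peptides (tFT-X12 library) are fused to the C-terminus of a sfGFP-mCherry tandem fluorescent timer, after mCherry and a GGGS linker. Cells are FACS-sorted into 8 mCherry/sfGFP bins and deep-sequenced. The protein stability index (PSI) is the read-weighted bin average, scaled from 0 (unstable) to 1 (stable). Only peptides with >10 reads are reported; cells were grown at 30 °C in SC-His with glucose.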
# 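Also: PSI is a weighted mean of sequencing reads over stability bins, variants kept only with over 10 reads, mCherry proximal and sfGFP distal, peptide attached via GGGS linker.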
row,Sequence,protein stability index
1,VCGGVWGGDNGG,0.771 ± 0.049
2,GGVVACGLRVAS,0.62 ± 0.058
3,LCPDFSLQWSFD,0.759 ± 0.019
4,PVPPPPPPPPPL,0.667 ± 0.0059
5,ASSGGCVPTLPL,0.68 ± 0.0078
6,KKNHYKAICNRR,0.619 ± 0.0075
7,GKRYEKVGVEWW,0.765 ± 0.12
8,EWGWGRIVNGRE,0.6869 ± 0.0032
9,PPLPPSPPRSPP,0.552 ± 0.029
10,DRLLLSPSPTPP,0.739 ± 0.013
11,WRWCGLWDTRTY,0.819 ± 0.0085
12,PLPLPSPAPPYS,0.68 ± 0.013
13,QFFVVLVSHEGR,0.63 ± 0.011
14,SPLGAHPTRIVF,0.6915 ± 0.00071
15,WKEMRKKVGRGK,0.696 ± 0.056
16,SPLPPPPAPFLP,0.6762 ± 0.0028
17,HKAPLLQLTADM,0.662 ± 0.028
18,AISVISNLTKLE,0.617 ± 0.034
19,SGLPRLLLVILP,0.6104 ± 0.0031
20,RKNIKYNTKNSI,0.654 ± 0.03
21,GGVVGVEWGAVG,0.626 ± 0.015
22,GVVLVARVTGSS,0.662 ± 0.075
23,LRQKKIELPIEP,0.687 ± 0.02
24,SPTPSPCIPSPP,0.701 ± 0.0089
25,VQSLCGDCGCCL,0.735 ± 0.04

row,Sequence,protein stability index
1,PEGICYCHSPAP,0.694 ± 0.013
2,TLPVPLPSVSHS,0.685 ± 0.0098
3,YYIITRWPNTTR,0.847 ± 0.2
4,RFDGLTTALDSV,0.669 ± 0.04
5,PVPERTSAEPPG,0.618 ± 0.038
6,LFGGCRLVGSVV,0.711 ± 0.023
7,SGRTLLPPSLGD,0.606 ± 0.025
8,PPPPPPPHSPLS,0.685 ± 0.04
9,NMIKNNKWDINR,0.7 ± 0.074
10,HLSPAPPPPSAP,0.706 ± 0.11
11,WFSCYSGQSSNF,0.757 ± 0.11
12,VGGCRVRDVAGE,0.686 ± 0.042
13,VGGCVVSFSANR,0.657 ± 0.043
14,FFPLRLLPLVPR,0.645 ± 0.0063
15,NTPNRNFTYTEN,0.685 ± 0.038
16,RLRCRYLSSTYY,0.712 ± 0.0078
17,LWLDKSREGSLG,0.701 ± 0.021
18,RVQFYVGSPALR,0.69684 ± 0.00031
19,AVGGWRAGGGGG,0.731 ± 0.04
20,RPVSALESPQAG,0.727 ± 0.059
21,ITGPPTGSPRYR,0.588 ± 0.23
22,PRGYCGLGRPAR,0.6305 ± 0.0013
23,GRVAMAVSGGVG,0.638 ± 0.023
24,FLSAGLSILAAP,0.683 ± 0.043
25,HVPQPNTVCPHL,0.754 ± 0.033

row,Sequence,protein stability index
1,DERLEIKERLEF,0.739 ± 0.071
2,RGPSSPTPRPAA,0.77 ± 0.13
3,GFARICVLLPSS,0.727 ± 0.039
4,YLDTVALLSRVL,0.569 ± 0.027
5,PPFAPAPALSAS,0.758 ± 0.11
6,YTRGVENTDMAP,0.768 ± 0.022
7,QLVSNNCSLVMC,0.532 ± 0.02
8,AFSYRAVIALLP,0.683 ± 0.018
9,RASLTPSDHLFF,0.766 ± 0.02
10,GGKLNRAGRATG,0.697 ± 0.088
11,RRAVLDSPSRRY,0.786 ± 0.031
12,LHAGHSNSVLAF,0.601 ± 0.0075
13,NCKLAVSPRPLR,0.692 ± 0.051
14,ASNEPQRQELGS,0.693 ± 0.018
15,LWLSAPDRREPF,0.684 ± 0.041
16,REGVELTRPVTC,0.696 ± 0.041
17,PSPPSAKLRRTP,0.72 ± 0.057
18,RDPSIVDHTVVT,0.735 ± 0.041
19,GPRPATTSPLPT,0.721 ± 0.2
20,DNRKIRSEKITP,0.69 ± 0.099
21,GGVATQARQTCN,0.742 ± 0.17
22,RTRSKVSVSFND,0.728 ± 0.043
23,LLVLPLVFSCSS,0.53 ± 0.0078
24,GGDARGRGGMPD,0.712 ± 0.12
25,PLSPAPPRPPPP,0.621 ± 0.023

row,Sequence,protein stability index
1,GVGWGSRGVCLG,0.659 ± 0.095
2,SFILPFISPLLF,0.565 ± 0.022
3,PPNPFPALRSSP,0.7324 ± 0.0011
4,FLFASSGFLGRF,0.67 ± 0.036
5,LGCLVGVRFLGF,0.642 ± 0.032
6,RLLPAPPPPTRP,0.693 ± 0.036
7,PPPSRSLPPTPP,0.746 ± 0.084
8,NRNSHSGKIKLK,0.691 ± 0.049
9,GLNTKAQSRIPM,0.742 ± 0.018
10,KNKKFKKDEKTR,0.773 ± 0.059
11,PHPVTVFLSHLS,0.499 ± 0.041
12,FPPFPPLVPSPP,0.742 ± 0.0049
13,MDKIKKNYSQIG,0.693 ± 0.036
14,TALGLILSSFVY,0.595 ± 0.067
15,TFTSTTLARPFS,0.831 ± 0.036
16,ISRFSLTFPFHR,0.6947 ± 0.0039
17,AFGFCKVLSSGC,0.68 ± 0.013
18,GGGCQVSPPSLL,0.7076 ± 0.0024
19,GEWRHVFSVTRC,0.7475 ± 0.0025
20,SGSSRVGWLEGW,0.676 ± 0.022
21,GRVGGRSGGRGR,0.68 ± 0.013
22,EFDCVGCFRTLR,0.6618 ± 0.0017
23,SLFPQIFFFFFA,0.498 ± 0.0099

# Source: the supplement of paper PMC10724198
